Measured values as given in patent publication US20140178389A1 (AbbVie / Abbott, published 2014).

T1: recombinant cynomolgus IL-1α (cynomolgus, UniProt P79340 113-271)
T1 sequence (looked up): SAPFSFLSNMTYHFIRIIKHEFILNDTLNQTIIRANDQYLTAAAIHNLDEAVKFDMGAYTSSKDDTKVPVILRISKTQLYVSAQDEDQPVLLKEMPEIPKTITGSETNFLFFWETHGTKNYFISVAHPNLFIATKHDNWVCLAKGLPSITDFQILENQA

T2: recombinant cynomolgus IL-1β (cynomolgus, UniProt P79182 117-268)
T2 sequence (looked up): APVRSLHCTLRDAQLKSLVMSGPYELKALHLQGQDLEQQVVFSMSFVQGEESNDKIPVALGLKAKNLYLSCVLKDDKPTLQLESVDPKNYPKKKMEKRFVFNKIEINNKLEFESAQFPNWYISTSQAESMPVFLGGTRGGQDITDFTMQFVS

T3: native human IL-1α present in crude supernatants (human, UniProt P01583 113-271, limits assumed)
T3 sequence (looked up): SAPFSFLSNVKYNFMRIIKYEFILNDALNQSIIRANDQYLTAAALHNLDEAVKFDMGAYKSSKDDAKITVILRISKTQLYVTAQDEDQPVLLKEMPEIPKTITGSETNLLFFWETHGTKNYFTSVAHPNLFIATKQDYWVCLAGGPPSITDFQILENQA

T4: recombinant human IL-1α (human, UniProt P01583 113-271)
T4 sequence: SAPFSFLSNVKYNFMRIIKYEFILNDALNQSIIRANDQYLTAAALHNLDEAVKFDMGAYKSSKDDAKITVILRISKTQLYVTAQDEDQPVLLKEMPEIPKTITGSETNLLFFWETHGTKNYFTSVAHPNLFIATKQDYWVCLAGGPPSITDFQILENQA

B1: DVD1-h1B12.13-SS-X3, human anti-IL-1α/β DVD IgG1/k mut (234,235) (bispecific antibody)
heavy: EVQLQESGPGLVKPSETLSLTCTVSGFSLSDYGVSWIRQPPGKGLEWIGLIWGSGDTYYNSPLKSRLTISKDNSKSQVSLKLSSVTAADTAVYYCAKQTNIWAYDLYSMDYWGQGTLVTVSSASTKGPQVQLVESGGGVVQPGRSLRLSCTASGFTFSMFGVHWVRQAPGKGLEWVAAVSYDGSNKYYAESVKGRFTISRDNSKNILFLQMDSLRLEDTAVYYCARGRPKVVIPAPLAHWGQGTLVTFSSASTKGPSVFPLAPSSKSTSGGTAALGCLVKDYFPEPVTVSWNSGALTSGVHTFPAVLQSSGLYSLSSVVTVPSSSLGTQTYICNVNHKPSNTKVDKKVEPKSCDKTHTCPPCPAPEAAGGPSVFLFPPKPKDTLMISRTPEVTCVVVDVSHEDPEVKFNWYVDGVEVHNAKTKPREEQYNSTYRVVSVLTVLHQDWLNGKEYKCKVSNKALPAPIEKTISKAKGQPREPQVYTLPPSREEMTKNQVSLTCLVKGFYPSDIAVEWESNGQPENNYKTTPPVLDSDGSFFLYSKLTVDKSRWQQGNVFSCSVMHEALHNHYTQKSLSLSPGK
light: DIQMTQSPSSLSASVGDRVTITCQTSTDIDDDLNWYQQKPGKAPKLLISLASTLRPGVPSRFSGSGSGTDFTFTISSLQPEDFATYYCLQSDRLPLTFGQGTKLEIKRTVAAPDIQMTQSPSSVSASVGDRVTITCRASQGISSWLAWYQQKPGKAPKLLIYEASNLETGVPSRFSGSGSGSDFTLTISSLQPEDFATYYCQQTSSFLLSFGGGTKVEHKRTVAAPSVFIFPPSDEQLKSGTASVVCLLNNFYPREAKVQWKVDNALQSGNSQESVTEQDSKDSTYSLSSTLTLSKADYEKHKVYACEVTHQGLSSPVTKSFNRGEC
notes: also called PR-1358316
B2: DVD2-h1B12.21-SS-X3, human anti-IL-1α/β DVD IgG1/k mut (234,235) (bispecific antibody)
heavy: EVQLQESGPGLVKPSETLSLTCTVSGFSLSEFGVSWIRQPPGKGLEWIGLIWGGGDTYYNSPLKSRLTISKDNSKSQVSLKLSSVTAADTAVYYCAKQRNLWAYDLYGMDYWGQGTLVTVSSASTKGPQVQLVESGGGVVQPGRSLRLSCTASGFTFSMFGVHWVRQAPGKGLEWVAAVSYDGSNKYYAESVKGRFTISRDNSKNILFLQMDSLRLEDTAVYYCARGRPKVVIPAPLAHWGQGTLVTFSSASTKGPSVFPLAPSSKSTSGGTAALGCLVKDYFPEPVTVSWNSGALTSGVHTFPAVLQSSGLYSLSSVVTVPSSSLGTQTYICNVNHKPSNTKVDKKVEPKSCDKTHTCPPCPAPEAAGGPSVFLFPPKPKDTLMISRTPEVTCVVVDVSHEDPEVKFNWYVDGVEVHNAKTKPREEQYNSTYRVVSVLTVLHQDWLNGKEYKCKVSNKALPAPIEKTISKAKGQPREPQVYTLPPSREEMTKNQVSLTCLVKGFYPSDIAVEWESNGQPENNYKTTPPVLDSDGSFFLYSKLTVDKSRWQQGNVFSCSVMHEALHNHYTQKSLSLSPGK
light: DIQMTQSPSSLSASVGDRVTITCQTSQDIDMDLNWYQQKPGKAPKLLISQGSTLWPGVPSRFSGSGSGTDFTFTISSLQPEDFATYYCLQTDSFPLTFGQGTKLEIKRTVAAPDIQMTQSPSSVSASVGDRVTITCRASQGISSWLAWYQQKPGKAPKLLIYEASNLETGVPSRFSGSGSGSDFTLTISSLQPEDFATYYCQQTSSFLLSFGGGTKVEHKRTVAAPSVFIFPPSDEQLKSGTASVVCLLNNFYPREAKVQWKVDNALQSGNSQESVTEQDSKDSTYSLSSTLTLSKADYEKHKVYACEVTHQGLSSPVTKSFNRGEC
notes: also called PR-1358317
B3: DVD4-h1B12.A1-SS-X3, human anti-IL-1α/β DVD IgG1/k mut (234,235) (bispecific antibody)
heavy: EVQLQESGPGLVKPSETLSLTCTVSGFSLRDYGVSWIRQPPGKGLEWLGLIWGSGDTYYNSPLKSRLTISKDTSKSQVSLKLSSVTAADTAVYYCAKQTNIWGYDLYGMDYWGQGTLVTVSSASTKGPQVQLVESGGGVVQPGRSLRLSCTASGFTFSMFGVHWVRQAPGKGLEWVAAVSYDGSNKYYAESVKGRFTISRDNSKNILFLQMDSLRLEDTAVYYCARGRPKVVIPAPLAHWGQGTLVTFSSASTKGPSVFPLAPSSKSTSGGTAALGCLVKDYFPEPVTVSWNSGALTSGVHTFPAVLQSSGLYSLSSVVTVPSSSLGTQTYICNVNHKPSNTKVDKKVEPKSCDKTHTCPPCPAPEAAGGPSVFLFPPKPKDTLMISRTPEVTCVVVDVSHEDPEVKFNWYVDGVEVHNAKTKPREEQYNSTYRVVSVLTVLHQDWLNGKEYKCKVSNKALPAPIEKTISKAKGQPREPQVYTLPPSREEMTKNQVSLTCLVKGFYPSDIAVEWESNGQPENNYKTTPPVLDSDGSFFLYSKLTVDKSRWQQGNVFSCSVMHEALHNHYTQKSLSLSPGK
light: DIQMTQSPSSLSASVGDRVTITCQASQDIDMDLNWYQQKPGKAPKLLISQANTLPPGVPSRFSGSGSGTDFTFTISSLQPEDFATYYCLQSDWLPLTFGQGTKLEIKRTVAAPDIQMTQSPSSVSASVGDRVTITCRASQGISSWLAWYQQKPGKAPKLLIYEASNLETGVPSRFSGSGSGSDFTLTISSLQPEDFATYYCQQTSSFLLSFGGGTKVEHKRTVAAPSVFIFPPSDEQLKSGTASVVCLLNNFYPREAKVQWKVDNALQSGNSQESVTEQDSKDSTYSLSSTLTLSKADYEKHKVYACEVTHQGLSSPVTKSFNRGEC
notes: also called PR-1358319
B4: DVD5-h1B12.A3-SS-X3, human anti-IL-1α/β DVD IgG1/k mut (234,235) (bispecific antibody)
heavy: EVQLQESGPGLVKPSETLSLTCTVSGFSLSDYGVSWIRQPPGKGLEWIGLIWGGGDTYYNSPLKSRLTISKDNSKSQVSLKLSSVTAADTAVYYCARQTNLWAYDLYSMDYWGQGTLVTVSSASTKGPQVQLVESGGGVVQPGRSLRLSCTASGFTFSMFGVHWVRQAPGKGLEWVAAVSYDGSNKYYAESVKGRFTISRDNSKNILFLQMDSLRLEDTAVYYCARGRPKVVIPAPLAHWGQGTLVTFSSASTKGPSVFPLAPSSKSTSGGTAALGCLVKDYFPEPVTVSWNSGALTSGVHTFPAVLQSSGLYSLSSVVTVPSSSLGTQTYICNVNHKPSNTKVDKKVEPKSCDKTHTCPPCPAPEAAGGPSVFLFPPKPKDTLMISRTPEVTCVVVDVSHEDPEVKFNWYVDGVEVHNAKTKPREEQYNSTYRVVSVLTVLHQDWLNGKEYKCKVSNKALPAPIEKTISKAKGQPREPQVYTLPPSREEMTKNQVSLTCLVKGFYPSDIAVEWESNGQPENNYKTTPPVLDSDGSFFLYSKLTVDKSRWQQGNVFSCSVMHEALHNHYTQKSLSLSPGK
light: DIQMTQSPSSLSASVGDRVTITCQASTDIDDDLNWYQQKPGKAPKLLISLGSTLRPGVPSRFSGSGSGTDFTFTISSLQPEDFATYYCLQSDRLPLTFGQGTKLEIKRTVAAPDIQMTQSPSSVSASVGDRVTITCRASQGISSWLAWYQQKPGKAPKLLIYEASNLETGVPSRFSGSGSGSDFTLTISSLQPEDFATYYCQQTSSFLLSFGGGTKVEHKRTVAAPSVFIFPPSDEQLKSGTASVVCLLNNFYPREAKVQWKVDNALQSGNSQESVTEQDSKDSTYSLSSTLTLSKADYEKHKVYACEVTHQGLSSPVTKSFNRGEC
notes: also called PR-1358321
B5: h1B12-AM1, affinity-matured h1B12.1 IgG1/k mut (234,235) mAb (scFv clone 13) (antibody, V domains shown)
VH: EVQLQESGPGLVKPSETLSLTCTVSGFSLSDYGVSWIRQPPGKGLEWIGLIWGSGDTYYNSPLKSRLTISKDNSKSQVSLKLSSVTAADTAVYYCAKQTNIWAYDLYSMDYWGQGTLVTVSS
VL: DIQMTQSPSSLSASVGDRVTITCQTSTDIDDDLNWYQQKPGKAPKLLISLASTLRPGVPSRFSGSGSGTDFTFTISSLQPEDFATYYCLQSDRLPLTFGQGTKLEIKR
notes: also called PR-1354589
B6: h1B12-AM2, affinity-matured h1B12.1 IgG1/k mut (234,235) mAb (scFv clone 21) (antibody, V domains shown)
VH: EVQLQESGPGLVKPSETLSLTCTVSGFSLSEFGVSWIRQPPGKGLEWIGLIWGGGDTYYNSPLKSRLTISKDNSKSQVSLKLSSVTAADTAVYYCAKQRNLWAYDLYGMDYWGQGTLVTVSS
VL: DIQMTQSPSSLSASVGDRVTITCQTSQDIDMDLNWYQQKPGKAPKLLISQGSTLWPGVPSRFSGSGSGTDFTFTISSLQPEDFATYYCLQTDSFPLTFGQGTKLEIKR
notes: also called PR-1354591
B7: h1B12-AM3, affinity-matured h1B12.1 IgG1/k mut (234,235) mAb (scFv clone 34) (antibody, V domains shown)
VH: EVQLQESGPGLVKPSETLSLTCTVSGFSLSDYGVSWIRQPPGKGLEWIGLIWGSGDTYYNSPLKSRLTISKDTSKSQVSLKLSSVTAADTAVYYCAKQTNLWAYDLYSMDYWGQGTLVTVSS
VL: DIQMTQSPSSLSASVGDRVTITCQASQDIDDDLNWYQQKPGKAPKLLISLASILRPGVPSRFSGSGSGTDFTFTISSLQPEDFATYYCLQSDSFPLTFGQGTKLEIKR
notes: also called PR-1354592
B8: h1B12-AM4, affinity-matured h1B12.1 IgG1/k mut (234,235) mAb (scFv clone A1) (antibody, V domains shown)
VH: EVQLQESGPGLVKPSETLSLTCTVSGFSLRDYGVSWIRQPPGKGLEWLGLIWGSGDTYYNSPLKSRLTISKDTSKSQVSLKLSSVTAADTAVYYCAKQTNIWGYDLYGMDYWGQGTLVTVSS
VL: DIQMTQSPSSLSASVGDRVTITCQASQDIDMDLNWYQQKPGKAPKLLISQANTLPPGVPSRFSGSGSGTDFTFTISSLQPEDFATYYCLQSDWLPLTFGQGTKLEIKR
notes: also called PR-1354594

Tests used:
[1] = biological target: purified native human IL-1β (human, UniProt P01584 117-269); test: cell-based or functional assay
[2] = biological target: T1, recombinant cynomolgus IL-1α; test: cell-based or functional assay
[3] = biological target: T2, recombinant cynomolgus IL-1β; test: cell-based or functional assay
[4] = biological target: T3, native human IL-1α present in crude …; test: cell-based or functional assay
recombinant human IL-1β [5] = biological target: T5, recombinant human IL-1β (human, UniProt P01584 117-269); test: cell-based or functional assay
recombinant human IL-1α [6] = biological target: T4, recombinant human IL-1α; test: cell-based or functional assay
[7] = biological target: T1, recombinant cynomolgus IL-1α; test: SPR (BIAcore), DVD-Ig captured via goat anti-human IgG Fc
Method: (§1) Goat IgGs specific to human IgG Fc were covalently linked to the carboxy methyl dextran matrix on the CMS biosensor chip via free amine groups using an amine coupling kit and the immobilization wizard option in the Biacore instruments controlling software. Specifically, carboxyl groups of the dextran matrix on the chip were activated with NHS and EDC. Goat anti-human IgG Fc antibodies (25 μg/mL), diluted in 10 mM sodium acetate, pH 4.5, were injected across the activated surface. Once the level of binding response reached the desired value, unreacted groups were deactivated by injection of 1M ethanolamine. For binding of IL-1α & IL-1β to captured Ig, a 1 μg/mL concentration of Ig in HBS-EP+ was injected over the goat anti-human IgG Fc surface at a flow rate of 10 μL/min for 1 minute. The net difference in the baseline signal and the signal after the completion of the Ig injection was taken to represent the amount of bound Ig.
(§2) The potency of the 5 DVD-Igs containing affinity matured h1B12.1 domains to recombinant and native IL-1 antigens was determined using the MRC-5 bioassay as shown in Table 24. The binding kinetics of the DVD-Igs to recombinant human and cynomolgus IL-1α and IL-1β were determined using surface plasmon resonance. In some cases, the off-rate could not be determined as they reached the limit of detection of the instrument.

[8] = biological target: T2, recombinant cynomolgus IL-1β; test: as above
Method: as §1, §2

recombinant human IL-1β [9] = biological target: T5, recombinant human IL-1β; test: as above
Method: as §1, §2

recombinant human IL-1α [10] = biological target: T4, recombinant human IL-1α; test: as above
Method: as §1, §2

[11] = biological target: T2, recombinant cynomolgus IL-1β; test: indirect ELISA: mAb captured on goat anti-human IgG, biotinylated IL-1β titrated
Method: (§3) An indirect ELISA was performed to assess the relative affinity of the affinity matured h1B12.1 mAbs to a human chimeric version of the murine 1B12 mAb. An ELISA plate was coated with goat anti-human IgG (Jackson Immunoresearch cat#109-005-098) at 0.5 ug/mL overnight. The plate was blocked with 5% milk for 1 hour and washed three times with TPBS. Affinity-matured h1B12.1 antibodies and human IgG control (Sigma cat#12511) were incubated on the plate for 30 min at 0.2 μg/mL and then the plates were washed three times. A titration of biotinylated human IL-1β or biotinylated cyno IL-1β was added to the plate, starting at 10 nM and decreasing in concentration following a series of 1:3 dilutions. Binding of biotinylated IL-1β was detected with a 1:10000 dilution of peroxidase-conjugated streptavidin (Jackson Immunoresearch cat#016-030-084) and TMB substrate (Invitrogen). The data were fit in Graphpad prism to determine the EC₅₀ values.

recombinant human IL-1β [12] = biological target: T5, recombinant human IL-1β; test: as above
Method: as §3

| Binder | Potency (IC50) pM, MRC-5 bioassay [1] | Potency (IC50) pM, MRC-5 bioassay [2] | Potency (IC50) pM, MRC-5 bioassay [3] | Potency (IC50) pM, MRC-5 bioassay [4] | Potency (IC50) pM, MRC-5 bioassay (recombinant human IL-1β [5]) | Potency (IC50) pM, MRC-5 bioassay (recombinant human IL-1α [6]) | Kd [7] | koff [7] | kon [7] | Kd [8] | koff [8] | kon [8] | Kd (recombinant human IL-1β [9]) | koff (recombinant human IL-1β [9]) | kon (recombinant human IL-1β [9]) | Kd (recombinant human IL-1α [10]) | koff (recombinant human IL-1α [10]) | kon (recombinant human IL-1α [10]) | EC50 [11] | EC50 (recombinant human IL-1β [12]) |
| --- | --- | --- | --- | --- | --- | --- | --- | --- | --- | --- | --- | --- | --- | --- | --- | --- | --- | --- | --- | --- |
| B1 | 1.64 pM | 2440 pM | 3.62 pM | 24.4 pM | 55.9 pM | 45.4 pM | 2.3 nM | 0.00023 s⁻¹ | 100000 M⁻¹ s⁻¹ | 1.5 pM | 1.7e-05 s⁻¹ | 1.2e+07 M⁻¹ s⁻¹ | 0.22 pM | 5.1e-06 s⁻¹ | 2.3e+07 M⁻¹ s⁻¹ | 0.021 nM | 2.9e-06 s⁻¹ | 140000 M⁻¹ s⁻¹ |  |  |
| B2 | 1.91 pM | 1640 pM | 1.86 pM | 72 pM | 48.6 pM | 42.8 pM | 2 nM | 0.00021 s⁻¹ | 100000 M⁻¹ s⁻¹ | 1.6 pM | 1.8e-05 s⁻¹ | 1.1e+07 M⁻¹ s⁻¹ | 0.2 pM | 5.1e-06 s⁻¹ | 2.5e+07 M⁻¹ s⁻¹ | 0.12 nM | 1.6e-05 s⁻¹ | 140000 M⁻¹ s⁻¹ |  |  |
| B3 | 2.46 pM | 2580 pM | 4.02 pM | 50.9 pM | 58.6 pM | 38.6 pM | 2.6 nM | 0.00035 s⁻¹ | 130000 M⁻¹ s⁻¹ | 1.8 pM | 9.6e-06 s⁻¹ | 5.3e+06 M⁻¹ s⁻¹ | ≤ 0.98 pM | ≤ 1e-05 s⁻¹ | 1.1e+07 M⁻¹ s⁻¹ | 0.2 nM | 3.6e-05 s⁻¹ | 180000 M⁻¹ s⁻¹ |  |  |
| B4 | 4.27 pM | 1920 pM | 6.56 pM | 57.6 pM | 51.2 pM | 44.3 pM | 2.4 nM | 0.00027 s⁻¹ | 110000 M⁻¹ s⁻¹ | 1 pM | 1.3e-05 s⁻¹ | 1.3e+07 M⁻¹ s⁻¹ | 0.5 pM | 1.3e-05 s⁻¹ | 2.6e+07 M⁻¹ s⁻¹ | 0.01 nM | 1.6e-06 s⁻¹ | 150000 M⁻¹ s⁻¹ |  |  |
| B5 |  |  |  |  |  |  |  |  |  |  |  |  |  |  |  |  |  |  | 0.026 nM | 0.031 nM |
| B6 |  |  |  |  |  |  |  |  |  |  |  |  |  |  |  |  |  |  | 0.034 nM | 0.026 nM |
| B7 |  |  |  |  |  |  |  |  |  |  |  |  |  |  |  |  |  |  | 0.032 nM | 0.033 nM |
| B8 |  |  |  |  |  |  |  |  |  |  |  |  |  |  |  |  |  |  | 0.025 nM | 0.031 nM |
